Data on one molecule can be found in CN116178530A (SHANGHAI JUNSHI BIOSCIENCES CO LTD; JUNMENG BIOSCIENCES CO …, dated 2023).

For the assay, the target named is SARS-CoV-2的野生型RBD蛋白(货号SPD-C82E8，ACRO Biosystems) (SARS-CoV-2, UniProt P0DTC2 319-537).

B1: JS5-10 (antibody, human IgG1, kappa, L234A L235A, V domains shown)
VH: EVQLLESGGGLVQPGGSLRLSCAASGFTFSSYAMSWVRQAPGKGLEWVSAIVGSGGSTYYADSVKGRFIISRDNSKNTLYLQMNSLRAEDTAVYYCAKSLIYGHYDILTGAYYFDYWGQGTLVTVSS
VL: DIQMTQSPSSVSASVGDRVTIPCRASQGIGNWLAWYQQKPGKAPKLLIYAASSLQSGVPSRFSGSGSGTDFTLTISSLQPEDFATYYCQQANSFPPFGQGTRLEIKR
By Kd is commonly meant a measure of binding affinity in units of concentration. Low readings indicate a tighter complex, high ones a looser complex. Usually koff stands for a measure of how fast the partners let go of each other. A lower koff goes with a long-lived complex. The term kon denotes a measure of how fast the partners come together. A low value points to slower complex formation. In turn, B1 registered a Kd of 2.04 nM, a koff of 0.000215 s⁻¹ and a kon of 106000 M⁻¹ s⁻¹.
